Experimental data taken from publication PMC7672466, “Biophysical analysis of Pseudomonas-phage PaP3 small terminase suggests a mechanism for sequence-specific DNA-binding by lateral interdigitation”.

T1: PaP3 ΔC122-TerS (Pseudomonas phage PaP3, UniProt Q8H9R5 1-121, del122-152)
T1 sequence: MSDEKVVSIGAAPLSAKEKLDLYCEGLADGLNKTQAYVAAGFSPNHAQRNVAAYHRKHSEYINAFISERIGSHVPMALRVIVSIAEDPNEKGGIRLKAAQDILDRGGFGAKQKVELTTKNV

B1: Cy3-cos (dsDNA)
DNA 1: GCCGGCCCCTTTCCGCGTTA
DNA 2: TAACGCGGAAAGGGGCCGGC
B2: Cy3-scr (dsDNA)
DNA 1: GCACTGCAGTAACTTGTCAGTCAT
DNA 2: ATGACTGACAAGTTACTGCAGTGC

How the values were obtained:
PaP3 ΔC122-TerS [1] = target: T1, PaP3 ΔC122-TerS; assay: EMSA; 0.15 uM cos DNA on agarose, also 4-16% acrylamide; comparable to WT; EMSA: incubation 37 C 30 min (binding buffer not stated; proteins in GF buffer 20 mM Tris-HCl pH 7.5, 150 mM NaCl, 5 mM bME, 2.5% glycerol); 1% agarose or 4-16% acrylamide gel, 0.5x TBE, 4 C; conditions: protein: recombinant; tags: GST removed by PreScission protease; chain copies: 9; label: 5' Cy3 on both strands; blunt
PaP3 ΔC122-TerS [2] = target: T1, PaP3 ΔC122-TerS; assay: EMSA; 4-16% acrylamide; stronger than WT on scr; EMSA: incubation 37 C 30 min (binding buffer not stated; proteins in GF buffer 20 mM Tris-HCl pH 7.5, 150 mM NaCl, 5 mM bME, 2.5% glycerol); 1% agarose or 4-16% acrylamide gel, 0.5x TBE, 4 C; conditions: protein: recombinant; tags: GST removed by PreScission protease; chain copies: 9; label: 5' Cy3; blunt

Binder | binding result (PaP3 ΔC122-TerS [1]) | binding result (PaP3 ΔC122-TerS [2])
B1 | binds | –
B2 | – | binds
